Molecular target: α subunit of the Sinapis alba plastid-encoded RNA polymerase (SaPEP) (Sinapis alba) (UniProt Q9XQN8)
Test: cryo-EM structure

stoichiometry N: 2
Substance: α subunit of the Sinapis alba plastid-encoded RNA polymerase (SaPEP) (from UniProt Q9XQN8 1-327) (natural protein)
